# Experimental data: patent publication US20210284747A1 (CAPELLA BIOSCIENCE, published 2021)
# Residue numbers refer to the chain shown, from its start.
# B1: 3E09 chimeric IgG4 mAb (antibody, V domains shown)
# VH: EVQLVESGGGLVKPGGSLKLSCEASGFTFSDYYMYWVRQTPEKRLEWVAAIGDGGIYTYYADTVKGRFTISRDNAKNILYLQMSSLKSNDTAMYYCARGTGDGFAYWGQGTLVTVS
# VL: DIVLTQSPASLAVSLGQRATISCRASESVDSYGNSFMHWYQQKPGQPPKLLIYLASNLESGVPARFSGSGSRTDFTLTIDPVEADDAATYYCQQNNEDPYTFGGGTKLEIK
# notes: Chimeric human IgG4 (S-to-P, L-to-E) with human CL, as m1; also called Parental 3E09
# B2: 3B04_var8 (antibody, V domains shown)
# VH: QVQLVQSGAEVKKPGASVKVSCKASGYTFTDYEMHWVRQAPGQGLEWMGEIDPETGDTAYAQKFQGRVTLTADKSTSTAYMELSSLRSEDTAVYYCSRETDYFFDYWGQGTLVTVSS
# VL: DIQMTQSPSSLSASVGDRVTITCGASENIYGALNWYQRKQGKAPKLLIYGATNLADGVPSRFSGSGSGRDYTLTISSLQPEDFATYYCQNVLTTPWTFGQGTKLEIKR
# B3: 3D12_var11 (antibody, V domains shown)
# VH: B2 VH with G26D, Y32S, M34I, D57G
# VL: B2 VL with R38Q, Q40P, F83V, T93S
# B4: 3D12_var1 (antibody, V domains shown)
# VH: B2 VH with G26D, Y32S, M34I, M48I, D57G, A61N, Q65K, V68A
# VL: B2 VL with K45Q, P59S, F83V, T93S
# B5: 3D12_var6 (antibody, V domains shown)
# VH: B2 VH with G26D, Y32S, M34I, M48I, D57G, A61N
# VL: B2 VL with F83V, T93S
# B6: 3D12_var9 (antibody, V domains shown)
# VH: B2 VH with G26D, Y32S, M34I, M48I, D57G, A61N, Q65K, V68A
# VL: B2 VL with R38Q, Q40P, F83V, T93S
# B7: 3B04_var12 (antibody, V domains shown)
# VH: B2 VH
# VL: B2 VL with R38Q, Q40P
# B8: 3B04_var5 (antibody, V domains shown)
# VH: B2 VH with M48I, A61S, Q65K, V68A, L83F
# VL: B2 VL
# B9: 3B04_var10 (antibody, V domains shown)
# VH: B2 VH with M48I, A61S, L83F
# VL: B2 VL with R38Q, Q40P
# B10: 3B04_var9 (antibody, V domains shown)
# VH: B2 VH with M48I, A61S, Q65K, V68A, L83F
# VL: B2 VL with R38Q, Q40P
# B11: 3D12_var5 (antibody, V domains shown)
# VH: B2 VH with G26D, Y32S, M34I, M48I, D57G, A61N, Q65K, V68A
# VL: B2 VL with F83V, T93S
# B12: 3D12_var10 (antibody, V domains shown)
# VH: B2 VH with G26D, Y32S, M34I, M48I, D57G, A61N
# VL: B2 VL with R38Q, Q40P, F83V, T93S
# B13: 3D12_var2 (antibody, V domains shown)
# VH: B2 VH with G26D, Y32S, M34I, M48I, D57G, A61N
# VL: B2 VL with K45Q, P59S, F83V, T93S
# B14: 3D12_var7 (antibody, V domains shown)
# VH: B2 VH with G26D, Y32S, M34I, D57G
# VL: B2 VL with F83V, T93S
# B15: 3B04_var4 (antibody, V domains shown)
# VH: B2 VH
# VL: B2 VL with K45Q, P59S
# B16: 3B04_var1 (antibody, V domains shown)
# VH: B2 VH with M48I, A61S, Q65K, V68A, L83F
# VL: B2 VL with K45Q, P59S
# B17: 3D12_var3 (antibody, V domains shown)
# VH: B2 VH with G26D, Y32S, M34I, D57G
# VL: B2 VL with K45Q, P59S, F83V, T93S
# B18: 3B04_var2 (antibody, V domains shown)
# VH: B2 VH with M48I, A61S, L83F
# VL: B2 VL with K45Q, P59S
# B19: 3B04_var6 (antibody, V domains shown)
# VH: B2 VH with M48I, A61S, L83F
# VL: B2 VL
# What was measured:
# [1] = molecular target: T1, Human LIGHT stably expressed on EL4 cells (EL4-LIGHT) (human, UniProt O43557 1-240); test: flow cytometry, against F19 and F23
# T1 construct: whole, on cells; also called membrane LIGHT
# T1 sequence (O43557 whole entry): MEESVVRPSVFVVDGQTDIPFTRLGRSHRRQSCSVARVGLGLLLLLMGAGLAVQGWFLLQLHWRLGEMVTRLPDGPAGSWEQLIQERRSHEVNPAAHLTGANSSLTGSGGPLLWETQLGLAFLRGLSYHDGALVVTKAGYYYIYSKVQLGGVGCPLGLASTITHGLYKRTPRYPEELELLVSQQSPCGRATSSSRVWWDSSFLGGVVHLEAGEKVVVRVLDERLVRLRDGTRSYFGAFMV
# [2] = molecular target: T1, Human LIGHT stably expressed on EL4 …; test: flow cytometry, EL4-LIGHT cells
# Description: The EC50 of the 7 mAbs were calculated from binding to EL4-LIGHT cells (FIG. 1). […] Non-linear regression analysis was performed to determine the functional binding affinity measurement or EC50 for each mAb. A range of functional affinities was observed.
# [3] = molecular target: Full length LIGHT G188A on HEK293FF cells (Homo sapiens (Human), UniProt O43557 1-240); test: flow cytometry, HEK293FF, mAb at EC50
# Chain of Full length LIGHT G188A on HEK293FF cells (O43557 whole entry G188A): as the sequence (O43557 whole entry) above, with G188A counted along it
# Description: (§1) The day of transfection the cells were seeded in a 24-well plate at 0.6×10⁶ cells/well. Lipofectamine 2000 (ThermoFisher scientific), 3 ul, was mixed with 50 μl OptiMEM medium (GIBCO) and then added to 50 μl Opti-MEM medium containing 3 ug plasmid DNA and incubated for 20 min at RT to form DNA-Lipofectamine 2000 complexes which were then added to the HEK293FF cells and incubated at 37° C., 5% CO₂ for 24 hours. For each construct, in duplicate, 0.60×10⁶ cells/well were used in a 96 well round bottom plate. Cells were centrifuged for 3 minutes at 300×g at 4° C., the supernatant discarded and the cells washed with 150 μl FACS buffer (0.5% FBS in phosphate buffered saline). This process was repeated 3 times. […] The wells were washed 3 times as above and 50 μl/well of goat anti-human IgG FITC (1:1500 dilution in FACS buffer, SIGMA F9512-2ML) or goat anti-mouse APC (1/500 dilution in FACS buffer, BDBioscience 550826), as appropriate, was added to the wells and incubated for 30 min at 4° C. protected from the light, with shaking. The cells were then washed as above, resuspended in 100 μl of FACS buffer and binding of the antibodies to the constructs was measured using flow cytometry and a total of 10,000 cells were acquired for each sample. Controls of buffer and secondary antibody only as well as HEK293FF non transfected cells were also used.
# [4] = molecular target: Full length LIGHT A190S on HEK293FF cells (Homo sapiens (Human), UniProt O43557 1-240); test: flow cytometry, HEK293FF, mAb at EC50
# Chain of Full length LIGHT A190S on HEK293FF cells (O43557 whole entry A190S): as the sequence (O43557 whole entry) above, with A190S counted along it
# Description: as §1
# [5] = molecular target: Full length LIGHT V196A on HEK293FF cells (Homo sapiens (Human), UniProt O43557 1-240); test: flow cytometry, HEK293FF, mAb at EC50
# Chain of Full length LIGHT V196A on HEK293FF cells (O43557 whole entry V196A): as the sequence (O43557 whole entry) above, with V196A counted along it
# Description: as §1
# [6] = molecular target: Full length LIGHT S192A on HEK293FF cells (Homo sapiens (Human), UniProt O43557 1-240); test: flow cytometry, HEK293FF, mAb at EC50
# Chain of Full length LIGHT S192A on HEK293FF cells (O43557 whole entry S192A): as the sequence (O43557 whole entry) above, with S192A counted along it
# Description: as §1
# [7] = molecular target: Full length LIGHT W198A on HEK293FF cells (Homo sapiens (Human), UniProt O43557 1-240); test: flow cytometry, HEK293FF, mAb at EC50
# Chain of Full length LIGHT W198A on HEK293FF cells (O43557 whole entry W198A): as the sequence (O43557 whole entry) above, with W198A counted along it
# Description: as §1
# [8] = molecular target: Full length LIGHT R189A on HEK293FF cells (Homo sapiens (Human), UniProt O43557 1-240); test: flow cytometry, HEK293FF, mAb at EC50
# Chain of Full length LIGHT R189A on HEK293FF cells (O43557 whole entry R189A): as the sequence (O43557 whole entry) above, with R189A counted along it
# Description: as §1
# [9] = molecular target: Full length LIGHT S193A on HEK293FF cells (Homo sapiens (Human), UniProt O43557 1-240); test: flow cytometry, HEK293FF, mAb at EC50
# Description: as §1
# [10] = molecular target: Full length LIGHT S194A on HEK293FF cells (Homo sapiens (Human), UniProt O43557 1-240); test: flow cytometry, HEK293FF, mAb at EC50
# Chain of Full length LIGHT S194A on HEK293FF cells (O43557 whole entry S194A): as the sequence (O43557 whole entry) above, with S194A counted along it
# Description: as §1
# [11] = molecular target: Full length LIGHT W197A on HEK293FF cells (Homo sapiens (Human), UniProt O43557 1-240); test: flow cytometry, HEK293FF, mAb at EC50
# Chain of Full length LIGHT W197A on HEK293FF cells (O43557 whole entry W197A): as the sequence (O43557 whole entry) above, with W197A counted along it
# Description: as §1
# [12] = molecular target: Full length LIGHT R195A on HEK293FF cells (Homo sapiens (Human), UniProt O43557 1-240); test: flow cytometry, HEK293FF, mAb at EC50
# Chain of Full length LIGHT R195A on HEK293FF cells (O43557 whole entry R195A): as the sequence (O43557 whole entry) above, with R195A counted along it
# Description: as §1
# [13] = molecular target: Full length LIGHT T191A on HEK293FF cells (Homo sapiens (Human), UniProt O43557 1-240); test: flow cytometry, HEK293FF, mAb at EC50
# Chain of Full length LIGHT T191A on HEK293FF cells (O43557 whole entry T191A): as the sequence (O43557 whole entry) above, with T191A counted along it
# Description: as §1
# [14] = molecular target: T2, Human LIGHT-32L, on II23 cells (human, UniProt O43557 1-240); test: flow cytometry on II23-LIGHT 32L cells, 4 ug mAb in 100 uL, goat anti-human Fc gamma-PE; signal as % of the commercial anti-LIGHT-PE
# T2 construct: also called II23-LIGHT 32L
# T2 chain: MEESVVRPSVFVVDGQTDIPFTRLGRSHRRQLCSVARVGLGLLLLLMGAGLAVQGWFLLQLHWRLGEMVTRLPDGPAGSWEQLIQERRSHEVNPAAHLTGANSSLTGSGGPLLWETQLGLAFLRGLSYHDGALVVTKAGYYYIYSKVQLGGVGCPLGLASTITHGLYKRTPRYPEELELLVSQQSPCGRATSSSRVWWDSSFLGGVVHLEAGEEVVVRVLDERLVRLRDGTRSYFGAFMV
# Description: The cells were suspended at 1×10⁷ cells/ml and 100 uL aliquots were placed into wells of a 96-well plate, the cells spun down and washed in FACS buffer at 1800 rpm for 2 min. The cells were blocked with 1:100 dilution of anti-CD16/CD32 (eBioscience, San Diego, USA) in FACS buffer for 20 min at room temperature and then washed 1× in FACS buffer at 1800 rpm for 2 min. The cells were then resuspended in 100 uL FACS buffer+4 ug anti-membrane LIGHT mAbs or anti-LIGHT-PE (eBioscience, lot: E01621-1632) for 30 min in the dark at room temperature, followed by washing 1× in FACS buffer at 1800 rpm for 2 min and then resuspended in 100 uL FACS buffer plus 1:100 goat anti-human Fcγ-PE secondary antibody or no secondary antibody at 4° C. in the dark for 30 min. The cells were again washed 1× in FACS buffer at 1800 rpm for 2 min and fixed in 200 uL 2% paraformaldehyde overnight at 4° C. and read on a flow cytometer.
# [15] = molecular target: LIGHT without residues 81-84, stably expressed on EL4 cells (EL4-NC-LIGHT); test: cell-based or functional assay
Binder,"IC50, inhibition of IL-8 secretion, HT-29 + EL4-NC-LIGHT cells [15]",further results
B1,,"binding ratio, mAb to LIGHT trimer [1]: 1 mAb per LIGHT trimer; EC50 [2]: 10.4 nM; % of WT binding [3]: 35%; % of WT binding [4]: 97%; % of WT binding [5]: 34%; % of WT binding [6]: 50%; % of WT binding [7]: 48%; % of WT binding [8]: 1%; % of WT binding [9]: 0%; % of WT binding [10]: 1%; % of WT binding [11]: 1%; % of WT binding [12]: 1%; % of WT binding [13]: 88%; binding result [14]: binds"
B2,0.05 nM,
B3,0.55 nM,
B4,0.33 nM,
B5,0.47 nM,
B6,0.71 nM,
B7,0.07 nM,
B8,0.04 nM,
B9,0.04 nM,
B10,0.09 nM,
B11,0.59 nM,
B12,0.44 nM,
B13,0.74 nM,
B14,0.54 nM,
B15,0.04 nM,
B16,0.05 nM,
B17,0.53 nM,
B18,0.06 nM,
B19,0.08 nM,
